Legend:
Test in all cases: cell_activity
[1] = tested on: ZFN pair targeting CHO Rosa26 (artificial); details: indels in CHO K1 3 days post transfection, CEL-I or sequencing
[2] = tested on: ZFN pair targeting CHO Neu3 (artificial); details: indels in CHO K1 3 days post transfection, CEL-I or sequencing
[3] = tested on: ZFN pair targeting CHO NW_003618207.1 (artificial); details: indels in CHO K1 3 days post transfection, CEL-I or sequencing
[4] = tested on: hSIRT ZFN pair (artificial); details: ZFN activity of the pair; assay conditions not given
[5] = tested on: hRSK4 ZFN pair (artificial); details: ZFN activity of the pair; assay conditions not given

For CHO Rosa26 locus, the activity [1] was 31%.

Substance CHO Neu3 locus has an activity [2] of 41%.

Work on CHO NW_003618207.1 bp 12931-12970 yielded an activity [3] of 16%.

In the case of “ATCTTGCCTGATTTGTAAATACAAAGTTGACTGTGAA (double strand) [hSIRT ZFN recognition sequence]”, the activity [4] is reported as 16.7%.

“GGCTCCTACTCTGTTTGCAAGCGATGCATACATGCAA (double strand) [hRSK4 ZFN recognition sequence]” was tested, and the activity [5] was 65.7%.

Reference: patent US20160145645
